Test results from FireProtDB (doi:10.1111/j.1432-1033.1994.tb18664.x).

B1: Ribonuclease HI, P0A7Y4 (parent)
chain: MLKQVEIFTDGSCLGNPGPGGYGAILRYRGREKTFSAGYTRTTNNRMELMAAIVALEALKEHCEVILSTDSQYVRQGITQWIHNWKKRGWKTADKKPVKNVDLWQRLDAALGQHQIKWEWVKGHAGHPENERCDELARAAAMNPTLEDTGYQVEV

Variants of: B1
Settings: Escherichia coli (strain K12), Thermal, CD, NaCl 0.1 M, reversible: yes, structure 2RN2, whole UniProt chain shown
[1] = pH 5.5, 53.1 °C, Sodium acetate 20 mM

| Variant | ddG of mutation (higher = less stable) (pH 3, 50 °C, glycine-HCl 10 mM) [kcal/mol] | Tm (pH 3, glycine-HCl 10 mM) [°C] | change of melting temperature, mutant - wild type (higher = more stable) (pH 3, glycine-HCl 10 mM) [°C] | unfolding enthalpy (van 't Hoff) (pH 3, glycine-HCl 10 mM) [kcal/mol] | ddG of mutation (higher = less stable) [1] [kcal/mol] | Tm (pH 5.5, Sodium acetate 20 mM) [°C] | change of melting temperature, mutant - wild type (higher = more stable) (pH 5.5, Sodium acetate 20 mM) [°C] | unfolding enthalpy (van 't Hoff) (pH 5.5, Sodium acetate 20 mM) [kcal/mol] |
| --- | --- | --- | --- | --- | --- | --- | --- | --- |
| D134E | -0.72 | 52.4 | 2.4 | 108 | -0.86 | 56.2 | 3.1 | 102 |
| D134Q | -0.48 | 51.6 | 1.6 | 114 | -1.32 | 57.9 | 4.8 | 96.9 |
| D134T | -0.12 | 50.4 | 0.4 | 107 | – | 57 | 3.9 | 90.2 |
| D134A | -0.89 | – | – | – | -1.51 | 58.6 | 5.5 | 118 |
| D134V | -0.31 | 51.1 | 1.1 | 107 | -1.12 | 57.2 | 4.1 | 99 |
| D134L | -1.15 | 53.8 | 3.8 | 118 | -1.51 | 58.6 | 5.5 | 96.4 |
| D134S | -0.26 | 50.9 | 0.9 | 106 | -1.08 | – | – | – |
| D134H | -0.53 | 51.7 | 1.7 | 106 | -1.94 | – | – | – |
| D134I | -0.69 | 52.3 | 2.3 | 105 | -1.27 | 57.7 | 4.6 | 101 |
| D134N | 0.1 | 49.7 | -0.3 | 110 | – | 56.3 | 3.2 | 96.9 |
